One assay deals with Human C1q (human, UniProt P02745 23-245; P02746 28-253; P02747 29-245). In words: cell-based or functional assay.
The target in assay [1] is CD16a(158V/V) on NK92 effector cells (UniProt P08637 17-254, limits assumed). In words: cell-based or functional assay.
Assay [2] addresses T1, FcγRIIaR (UniProt P12318 36-218).
T1 construct: also called 2aR; 2ar
T1 sequence (looked up): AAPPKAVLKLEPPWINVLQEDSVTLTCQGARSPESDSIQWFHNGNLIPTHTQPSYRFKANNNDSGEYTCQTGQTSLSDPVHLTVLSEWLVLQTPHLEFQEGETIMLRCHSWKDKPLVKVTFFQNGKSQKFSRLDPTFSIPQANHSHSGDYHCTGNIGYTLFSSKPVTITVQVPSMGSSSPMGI
In words: SPR, antibody captured by goat anti-IgG, FcγR injected, equilibrium fit. (In general: SPR reads the build-up and loss of mass on a sensor chip optically.)
Experimental: (§1) Affinity of FcgR to antibody Fc was measured by SPR using a ProteOn XPR36 at 25° C. with PBS containing 3.4 mM EDTA, and 0.05% Tween 20 at pH 7.4 as the running buffer. […] 40 μg/mL of purified rituximab-based antibodies were indirectly captured by injecting at 25 μL/min for 240s (resulting in approx. 500RUs capture) in the ligand direction, following a buffer injection to establish a stable baseline in the analyte direction. FcγRs were subsequently injected at 50 μL/min for 120s with a 180s dissociation phase to obtain a set of binding sensorgrams. Resultant Kd (affinity) values were determined from double-referenced sensorgrams using the Equilibrium Fit model in the Proteon Manager software. Reported values as the mean of two or three independent runs.

Assay [3] has as its target T2, FcγRIIIaF (UniProt P08637 17-208).
T2 construct: also called 3aF; 3af
Described as above.
Experimental: as §1

In assay [4] the target is T3, FcγRIIb (UniProt P31994 46-217).
T3 construct: also called 2b; CD32b
T3 sequence (looked up): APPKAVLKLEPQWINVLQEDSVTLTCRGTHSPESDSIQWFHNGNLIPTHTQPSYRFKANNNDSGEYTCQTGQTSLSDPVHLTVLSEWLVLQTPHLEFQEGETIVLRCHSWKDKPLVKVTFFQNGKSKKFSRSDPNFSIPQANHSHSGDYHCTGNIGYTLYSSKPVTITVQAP
The description is as above.
Experimental: as §1

Assay [5] has as its target T4, FcγRIIaH (UniProt P12318 36-218).
T4 construct: also called 2aH; 2ah
T4 sequence (looked up): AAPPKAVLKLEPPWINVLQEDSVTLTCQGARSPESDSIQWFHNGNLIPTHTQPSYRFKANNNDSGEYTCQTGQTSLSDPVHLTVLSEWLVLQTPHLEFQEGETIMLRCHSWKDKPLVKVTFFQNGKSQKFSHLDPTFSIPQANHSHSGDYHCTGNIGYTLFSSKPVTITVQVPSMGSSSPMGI
The description is as above.
Experimental: as §1

Another assay has as its target T5, FcγRIIIaV (UniProt P08637 17-208).
T5 construct: also called 3aV; 3av
The assay is described as above.

In assay [6] the target is T1, FcγRIIaR. In words: SPR, antibody captured by goat anti-IgG, FcγR injected.
The target of assay [7] is T2, FcγRIIIaF. The assay is described as above.
Assay [8] has as its target T3, FcγRIIb. The assay is described as above.
In assay [9] the target is T4, FcγRIIaH. Described as above.

Chain of Human C1q (P02745 23-245 limits assumed, chain 1 of 3): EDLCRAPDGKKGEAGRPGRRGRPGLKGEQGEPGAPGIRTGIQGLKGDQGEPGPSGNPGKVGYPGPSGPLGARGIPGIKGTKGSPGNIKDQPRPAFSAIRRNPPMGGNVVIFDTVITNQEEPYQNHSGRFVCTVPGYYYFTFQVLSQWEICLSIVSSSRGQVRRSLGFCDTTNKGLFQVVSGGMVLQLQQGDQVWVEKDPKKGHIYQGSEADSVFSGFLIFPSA
Chain of Human C1q (P02746 28-253 limits assumed, chain 2 of 3): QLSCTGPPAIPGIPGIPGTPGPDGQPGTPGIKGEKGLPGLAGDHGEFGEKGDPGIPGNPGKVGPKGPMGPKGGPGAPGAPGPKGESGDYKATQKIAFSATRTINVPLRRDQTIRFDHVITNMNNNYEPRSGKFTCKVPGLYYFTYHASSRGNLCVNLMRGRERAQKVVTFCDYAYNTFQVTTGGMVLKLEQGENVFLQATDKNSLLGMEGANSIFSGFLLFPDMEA
Chain of Human C1q (P02747 29-245 limits assumed, chain 3 of 3): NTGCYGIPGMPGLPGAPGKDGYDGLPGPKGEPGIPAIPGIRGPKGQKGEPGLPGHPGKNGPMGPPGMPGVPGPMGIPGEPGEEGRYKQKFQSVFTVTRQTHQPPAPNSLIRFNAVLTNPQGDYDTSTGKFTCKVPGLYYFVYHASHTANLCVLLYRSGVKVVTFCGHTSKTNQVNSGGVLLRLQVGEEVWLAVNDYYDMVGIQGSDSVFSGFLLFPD
Experimental for FcγRIIIaV: as §1

B1: Control WT Rituximab 1261 (antibody, human IgG1, kappa)
heavy 1: QVQLQQPGAELVKPGASVKMSCKASGYTFTSYNMHWVKQTPGRGLEWIGAIYPGNGDTSYNQKFKGKATLTADKSSSTAYMQLSSLTSEDSAVYYCARSTYYGGDWYFNVWGAGTTVTVSAASTKGPSVFPLAPSSKSTSGGTAALGCLVKDYFPEPVTVSWNSGALTSGVHTFPAVLQSSGLYSLSSVVTVPSSSLGTQTYICNVNHKPSNTKVDKKVEPKSCDKTHTCPPCPAPELLGGPSVFLFPPKPKDTLMISRTPEVTCVVVDVSHEDPEVKFNWYVDGVEVHNAKTKPREEQYNSTYRVVSVLTVLHQDWLNGKEYKCKVSNKALPAPIEKTISKAKGQPREPQVYVYPPSRDELTKNQVSLTCLVKGFYPSDIAVEWESNGQPENNYKTTPPVLDSDGSFALVSKLTVDKSRWQQGNVFSCSVMHEALHNHYTQKSLSLSPGK
heavy 2: not shown
light: QIVLSQSPAILSASPGEKVTMTCRASSSVSYIHWFQQKPGSSPKPWIYATSNLASGVPVRFSGSGSGTSYSLTISRVEAEDAATYYCQQWTSNPPTFGGGTKLEIKRTVAAPSVFIFPPSDEQLKSGTASVVCLLNNFYPREAKVQWKVDNALQSGNSQESVTEQDSKDSTYSLSSTLTLSKADYEKHKVYACEVTHQGLSSPVTKSFNRGEC
notes: also called v1261; V1261
For B1, the “CDC EC50 [nM], Daudi cells, 10% normal human serum” value (shortened to “CDC EC50 … 10% normal human serum”) with Human C1q stood at 2.9 nM. In addition, the “CDC Maximum Lysis, Daudi cells, 10% normal human serum” value with Human C1q came to 96 % cell lysis. The “ADCC EC50 [nM], Daudi cells, NK92/CD16a(158V/V) effector cells” value (shortened to “ADCC EC50 [nM], Daudi cells”) in [1] worked out at 0.1 nM. Moreover, the “ADCC Maximum Lysis, Daudi cells, NK92/CD16a(158V/V) effector cells” value in assay [1] amounted to 66 % cell lysis. Also, the “SPR Ka ratio with respect to wild-type trastuzumab” value (shortened to “SPR Ka ratio”) was 1.47 with FcγRIIaR [2]; 1.36 with FcγRIIIaF [3]; 1.85 with FcγRIIb [4]; 1.87 in the assay with FcγRIIaH [5]; 1.34 with FcγRIIIaV.

B2: AAC12, rituximab-based asymmetric antibody construct (antibody, human IgG1, kappa)
heavy 1: QVQLQQPGAELVKPGASVKMSCKASGYTFTSYNMHWVKQTPGRGLEWIGAIYPGNGDTSYNQKFKGKATLTADKSSSTAYMQLSSLTSEDSAVYYCARSTYYGGDWYFNVWGAGTTVTVSAASTKGPSVFPLAPSSKSTSGGTAALGCLVKDYFPEPVTVSWNSGALTSGVHTFPAVLQSSGLYSLSSVVTVPSSSLGTQTYICNVNHKPSNTKVDKKVEPKSCDKTHTCPPCPAPEDEGGPSVFLFPPKPKDTLMISRTPEVTCVVVDVSHEDPEVKFNWYVDGVEVHNAKTKPREEQYNSTYRVVSVLTVLHQDWLNGKEYKCAVSNKALPAPIEKTISKAKGQPREPQVYVYPPSRDELTKNQVSLTCLVKGFYPSDIAVEWESNGQPENNYKTTPPVLDSDGSFALVSKLTVDKSRWQQGNVFSCSVMHEALHNHYTQKSLSLSPGK
heavy 2: QVQLQQPGAELVKPGASVKMSCKASGYTFTSYNMHWVKQTPGRGLEWIGAIYPGNGDTSYNQKFKGKATLTADKSSSTAYMQLSSLTSEDSAVYYCARSTYYGGDWYFNVWGAGTTVTVSAASTKGPSVFPLAPSSKSTSGGTAALGCLVKDYFPEPVTVSWNSGALTSGVHTFPAVLQSSGLYSLSSVVTVPSSSLGTQTYICNVNHKPSNTKVDKKVEPKSCDKTHTCPPCPAPKRRGGPSVFLFPPKPKDTLMISRTPEVTCVVVDVSHEDPEVKFNWYVDGVEVHNAKTKPREEQYNSTYRVVSVLTVLHQDWLNGKEYKCAVSNKALPAPIEKTISKAKGQPREPQVYVLPPSRDELTKNQVSLLCLVKGFYPSDIAVEWESNGQPENNYLTWPPVLDSDGSFFLYSKLTVDKSRWQQGNVFSCSVMHEALHNHYTQKSLSLSPGK
light: QIVLSQSPAILSASPGEKVTMTCRASSSVSYIHWFQQKPGSSPKPWIYATSNLASGVPVRFSGSGSGTSYSLTISRVEAEDAATYYCQQWTSNPPTFGGGTKLEIKRTVAAPSVFIFPPSDEQLKSGTASVVCLLNNFYPREAKVQWKVDNALQSGNSQESVTEQDSKDSTYSLSSTLTLSKADYEKHKVYACEVTHQGLSSPVTKSFNRGEC
Take B2: the binding result in the assay with FcγRIIaR [6], with FcγRIIIaF [7], in the assay with FcγRIIb [8] and in the assay with FcγRIIaH [9] was “no binding” throughout. The “CDC EC50 … 10% normal human serum” value in the assay with Human C1q came to 54.6 nM. The “CDC Maximum Lysis, Daudi cells, 10% normal human serum” value in the assay with Human C1q was determined as 67 % cell lysis. Further, the “ADCC EC50 [nM], Daudi cells” value in assay [1] came to 23.1 nM. In assay [1], the “ADCC Maximum Lysis, Daudi cells, NK92/CD16a(158V/V) effector cells” value was 20 % cell lysis. Further, the “SPR Ka ratio” value with FcγRIIIaV turned out to be 0.08.

B3: AAC9, rituximab-based asymmetric antibody construct (antibody, human IgG1, kappa)
heavy 1: QVQLQQPGAELVKPGASVKMSCKASGYTFTSYNMHWVKQTPGRGLEWIGAIYPGNGDTSYNQKFKGKATLTADKSSSTAYMQLSSLTSEDSAVYYCARSTYYGGDWYFNVWGAGTTVTVSAASTKGPSVFPLAPSSKSTSGGTAALGCLVKDYFPEPVTVSWNSGALTSGVHTFPAVLQSSGLYSLSSVVTVPSSSLGTQTYICNVNHKPSNTKVDKKVEPKSCDKTHTCPPCPAPEDEGGPSVFLFPPKPKDTLMISRTPEVTCVVVDVSHEDPEVKFNWYVDGVEVHNAKTKPREEQYNSTYRVVSVLTVLHQDWLNGKEYKCKVSNKALPAPIEKTISKAKGQPREPQVYVYPPSRDELTKNQVSLTCLVKGFYPSDIAVEWESNGQPENNYKTTPPVLDSDGSFALVSKLTVDKSRWQQGNVFSCSVMHEALHNHYTQKSLSLSPGK
heavy 2: QVQLQQPGAELVKPGASVKMSCKASGYTFTSYNMHWVKQTPGRGLEWIGAIYPGNGDTSYNQKFKGKATLTADKSSSTAYMQLSSLTSEDSAVYYCARSTYYGGDWYFNVWGAGTTVTVSAASTKGPSVFPLAPSSKSTSGGTAALGCLVKDYFPEPVTVSWNSGALTSGVHTFPAVLQSSGLYSLSSVVTVPSSSLGTQTYICNVNHKPSNTKVDKKVEPKSCDKTHTCPPCPAPKRRGGPSVFLFPPKPKDTLMISRTPEVTCVVVDVSHEDPEVKFNWYVDGVEVHNAKTKPREEQYNSTYRVVSVLTVLHQDWLNGKEYKCKVSNKALPAPIEKTISKAKGQPREPQVYVLPPSRDELTKNQVSLLCLVKGFYPSDIAVEWESNGQPENNYLTWPPVLDSDGSFFLYSKLTVDKSRWQQGNVFSCSVMHEALHNHYTQKSLSLSPGK
light: QIVLSQSPAILSASPGEKVTMTCRASSSVSYIHWFQQKPGSSPKPWIYATSNLASGVPVRFSGSGSGTSYSLTISRVEAEDAATYYCQQWTSNPPTFGGGTKLEIKRTVAAPSVFIFPPSDEQLKSGTASVVCLLNNFYPREAKVQWKVDNALQSGNSQESVTEQDSKDSTYSLSSTLTLSKADYEKHKVYACEVTHQGLSSPVTKSFNRGEC
For the molecule B3, the binding result with FcγRIIaR [6], in the assay with FcγRIIIaF [7], in the assay with FcγRIIb [8] and in the assay with FcγRIIaH [9] was “no binding” throughout. In addition, the “CDC EC50 … 10% normal human serum” value with Human C1q amounted to 47.9 nM. Further, in the assay with Human C1q, the “CDC Maximum Lysis, Daudi cells, 10% normal human serum” value came to 68 % cell lysis. The “SPR Ka ratio” value in the assay with FcγRIIIaV was 0.08.

B4: AAC11, rituximab-based asymmetric antibody construct (antibody, human IgG1, kappa)
heavy 1: QVQLQQPGAELVKPGASVKMSCKASGYTFTSYNMHWVKQTPGRGLEWIGAIYPGNGDTSYNQKFKGKATLTADKSSSTAYMQLSSLTSEDSAVYYCARSTYYGGDWYFNVWGAGTTVTVSAASTKGPSVFPLAPSSKSTSGGTAALGCLVKDYFPEPVTVSWNSGALTSGVHTFPAVLQSSGLYSLSSVVTVPSSSLGTQTYICNVNHKPSNTKVDKKVEPKSCDKTHTCPPCPAPEDEGGPSVFLFPPKPKDTLMISRTPEVTCVVVDVSHKDPEVKFNWYVDGVEVHNAKTKPREEQYNSTYRVVSVLTVLHQDWLNGKEYKCKVSNKALPAPIEKTISKAKGQPREPQVYVYPPSRDELTKNQVSLTCLVKGFYPSDIAVEWESNGQPENNYKTTPPVLDSDGSFALVSKLTVDKSRWQQGNVFSCSVMHEALHNHYTQKSLSLSPGK
heavy 2: QVQLQQPGAELVKPGASVKMSCKASGYTFTSYNMHWVKQTPGRGLEWIGAIYPGNGDTSYNQKFKGKATLTADKSSSTAYMQLSSLTSEDSAVYYCARSTYYGGDWYFNVWGAGTTVTVSAASTKGPSVFPLAPSSKSTSGGTAALGCLVKDYFPEPVTVSWNSGALTSGVHTFPAVLQSSGLYSLSSVVTVPSSSLGTQTYICNVNHKPSNTKVDKKVEPKSCDKTHTCPPCPAPKRRGGPSVFLFPPKPKDTLMISRTPEVTCVVVDVSHKDPEVKFNWYVDGVEVHNAKTKPREEQYNSTYRVVSVLTVLHQDWLNGKEYKCKVSNKALPAPIEKTISKAKGQPREPQVYVLPPSRDELTKNQVSLLCLVKGFYPSDIAVEWESNGQPENNYLTWPPVLDSDGSFFLYSKLTVDKSRWQQGNVFSCSVMHEALHNHYTQKSLSLSPGK
light: QIVLSQSPAILSASPGEKVTMTCRASSSVSYIHWFQQKPGSSPKPWIYATSNLASGVPVRFSGSGSGTSYSLTISRVEAEDAATYYCQQWTSNPPTFGGGTKLEIKRTVAAPSVFIFPPSDEQLKSGTASVVCLLNNFYPREAKVQWKVDNALQSGNSQESVTEQDSKDSTYSLSSTLTLSKADYEKHKVYACEVTHQGLSSPVTKSFNRGEC
With B4, the binding result with FcγRIIaR [6], with FcγRIIIaF [7], with FcγRIIb [8] and with FcγRIIaH [9] was “no binding” each time. Besides, in the assay with Human C1q, the “CDC EC50 … 10% normal human serum” value is 51.6 nM. The “CDC Maximum Lysis, Daudi cells, 10% normal human serum” value with Human C1q was found to be 63 % cell lysis. Besides, the “ADCC EC50 [nM], Daudi cells” value in assay [1] was more than 100 nM.
